± gives the standard deviation of the averaged measurements.
Test system: ATP
Experiment: switch fluorescence ratio, 500 uM ATP over buffer (Cy3 cluster intensity, sum of 5 cycles each) (fold (ratio)); higher = stronger signal-on switching upon ATP binding; sequences stand for … in TCGTCGGCAGCGTCAGATGTGTATAAGAGACAGTTTTTTTTTTTTTTTTTTTTTTTTT…TC
Conditions: aptamer strand: ATP DNA aptamer (quencher-CACCTGGGGGAGTATTGCGGAGGAAGG + anchor), 100 nM annealed; ATP concentration: 500 uM
Summary of the method: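 The fluorescence ratio divides summed target-cycle Cy3 intensity by summed buffer-cycle Cy3 intensity for each cluster and is averaged per switch-domain sequence. Cy3-labelled switching-strand clusters on a modified Illumina MiSeq flow-cell were annealed to 100 nM quencher-labelled ATP aptamer, then imaged in selection buffer and again after 15 min with 500 uM ATP at 22 °C. Five such cycles were run, with NaOH stripping and re-annealing between them, and clusters outside 100-1000 RFU were excluded.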
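Further: ATP exposure 15 min at 22 °C before imaging.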

Row | Sequence | switch fluorescence ratio
1 | GCCTTAAAGG | 1.005 ± 0.0029
2 | GCCTTAACGG | 1.01 ± 0.021
3 | GCCTTACGGT | 1.04 ± 0.038
4 | GCCTTATATA | 0.9952 ± 0.0063
5 | GCCTTCAAGC | 1.04 ± 0.054
6 | GCCTTGATGG | 1.01 ± 0.021
7 | GCCTTGTTCA | 0.993 ± 0.022
8 | GCCTTTGGCA | 0.962 ± 0.013
9 | GCGAAAAAGG | 0.997 ± 0.035
10 | GCGAAAAGAA | 1.05 ± 0.054
11 | GCGAAAGGT | 0.9846 ± 0.0017
12 | GCGAAGGTCT | 1 ± 0.014
13 | GCGAATCGTA | 0.999 ± 0.049
14 | GCGACGTGAC | 3.17 ± 0.24
15 | GCGACGTTGC | 0.999 ± 0.036
16 | GCGAGAGCTG | 0.992 ± 0.017
17 | GCGAGAGGGT | 0.974 ± 0.025
18 | GCGAGAGTGT | 0.99552 ± 0.00015
19 | GCGAGCCAGG | 2.169 ± 0.011
20 | GCGAGCGAAA | 0.982 ± 0.019
21 | GCGAGGCCCG | 0.9944 ± 0.0017
22 | GCGAGGGAGG | 1.02 ± 0.052
23 | GCGAGGGGCT | 0.9717 ± 0.0031
24 | GCGAGGTGCA | 1.03 ± 0.055
25 | GCGAGGTGGT | 1.001 ± 0.0076

Row | Sequence | switch fluorescence ratio
26 | GCGAGGTTGA | 1.045 ± 0.0015
27 | GCGAGTAGG | 1.06 ± 0.056
28 | GCGAGTGTGA | 1 ± 0.036
29 | GCGATAAACC | 1.1929 ± 0.00026
30 | GCGATAAGAT | 1.0048 ± 0.00093
31 | GCGATACTGT | 3.08 ± 0.17
32 | GCGATAGCTC | 0.973 ± 0.043
33 | GCGATATCTT | 1.04 ± 0.029
34 | GCGATCTGGA | 1.04 ± 0.022
35 | GCGATGGGGA | 1.012 ± 0.0098
36 | GCGATTGGAG | 1.01 ± 0.034
37 | GCGCAACAGG | 1.04 ± 0.015
38 | GCGCAGACTT | 1.15 ± 0.034
39 | GCGCCAAGAG | 1.29 ± 0.11
40 | GCGCCGGAG | 1.0019 ± 0.00089
41 | GCGCGACGGA | 0.9905 ± 0.0014
42 | GCGCGCGACT | 1.002 ± 0.0092
43 | GCGCGCGATT | 0.997 ± 0.025
44 | GCGCGGCTGG | 1.02 ± 0.00077
45 | GCGCTACGGG | 1.01 ± 0.019
46 | GCGCTAGGTG | 2.19 ± 0.12
47 | GCGCTCATAG | 1.15 ± 0.018
48 | GCGCTCCGGG | 1.09 ± 0.072
49 | GCGCTGGGCA | 1.01 ± 0.035
50 | GCGCTTCAA | 0.971 ± 0.014

Row | Sequence | switch fluorescence ratio
51 | GCGCTTGGGG | 0.982 ± 0.011
52 | GCGCTTTTTT | 0.9898 ± 0.00075
53 | GCGGAAAAAC | 1.02 ± 0.058
54 | GCGGAAGATC | 1.03 ± 0.021
55 | GCGGAAGGAG | 1 ± 0.016
56 | GCGGAATGGA | 1.02 ± 0.013
57 | GCGGAGAGGT | 1.03 ± 0.022
58 | GCGGAGCTTT | 1.01 ± 0.015
59 | GCGGATGCTT | 0.9718 ± 0.0056
60 | GCGGCACAAT | 1.05 ± 0.013
61 | GCGGCACGTG | 0.97 ± 0.048
62 | GCGGCCCTGG | 1.008 ± 0.0064
63 | GCGGCCTCTT | 0.993 ± 0.013
64 | GCGGCCTGGG | 1.02 ± 0.049
65 | GCGGCCTTAC | 2.42 ± 0.4
66 | GCGGCGGCAG | 0.9761 ± 0.0088
67 | GCGGGAAGCT | 1.05 ± 0.044
68 | GCGGGAATGA | 1 ± 0.045
69 | GCGGGAGATG | 1.04 ± 0.018
70 | GCGGGAGTCC | 1.13 ± 0.2
71 | GCGGGATATG | 0.994 ± 0.019
72 | GCGGGATGGG | 1.08 ± 0.07
73 | GCGGGCGGCC | 0.9812 ± 0.0082
74 | GCGGGCTGAA | 0.962 ± 0.014
75 | GCGGGGCAGC | 1.001 ± 0.0068

Row | Sequence | switch fluorescence ratio
76 | GCGGGGCCAC | 1.2 ± 0.26
77 | GCGGGGGAAA | 1.02 ± 0.09
78 | GCGGGGGAG | 1.01 ± 0.059
79 | GCGGGGGCGT | 1 ± 0.03
80 | GCGGGGGGAT | 1.02 ± 0.017
81 | GCGGGGGGGA | 1.01 ± 0.038
82 | GCGGGGGTTA | 0.994 ± 0.018
83 | GCGGGGGTTT | 1.15 ± 0.28
84 | GCGGGGTATG | 0.9908 ± 0.008
85 | GCGGGGTCCG | 0.97126 ± 0.00059
86 | GCGGGGTTTC | 1.03 ± 0.059
87 | GCGGGTAGCA | 1.04 ± 0.029
88 | GCGGGTTACT | 1.053 ± 0.0028
89 | GCGGTAGCAG | 0.979 ± 0.024
90 | GCGGTAGTAC | 1.14 ± 0.013
91 | GCGGTCGGGC | 0.9952 ± 0.0076
92 | GCGGTGAGAA | 0.983 ± 0.028
93 | GCGGTGAGGC | 0.9709 ± 0.0056
94 | GCGGTGATGG | 1 ± 0.035
95 | GCGGTGCGGG | 0.9878 ± 0.0042
96 | GCGGTGGGTT | 0.9862 ± 0.0096
97 | GCGGTGTTTT | 1.03 ± 0.05
98 | GCGGTTCCTC | 1.05 ± 0.027
99 | GCGGTTGGAA | 0.9927 ± 0.0034
100 | GCGGTTTTTT | 1.22 ± 0.35

Row | Sequence | switch fluorescence ratio
101 | GCGTAACAGT | 0.964 ± 0.045
102 | GCGTAAGTGC | 1.092 ± 0.006
103 | GCGTACCAAT | 1.067 ± 0.0033
104 | GCGTAGGGG | 0.967 ± 0.028
105 | GCGTATAGGA | 1.01 ± 0.035
106 | GCGTATAGGG | 0.964 ± 0.033
107 | GCGTATTGAG | 1.02 ± 0.022
108 | GCGTATTTTT | 1.01 ± 0.029
109 | GCGTCAATTA | 1.08 ± 0.03
110 | GCGTCGATTA | 0.96 ± 0.015
111 | GCGTCTAGGA | 0.9839 ± 0.0033
112 | GCGTCTATGA | 1 ± 0.016
113 | GCGTGAGCGA | 0.985 ± 0.042
114 | GCGTGATTTG | 0.9959 ± 0.0045
115 | GCGTGGAGA | 1 ± 0.03
116 | GCGTGGGGGT | 1.01 ± 0.012
117 | GCGTTAACTC | 1.08 ± 0.026
118 | GCGTTAAGGG | 0.964 ± 0.053
119 | GCGTTAAGTA | 1.005 ± 0.0085
120 | GCGTTAAGTT | 0.984 ± 0.035
121 | GCGTTAGGCG | 1.01 ± 0.044
122 | GCGTTATAAG | 1.01 ± 0.049
123 | GCGTTCAGGC | 0.994 ± 0.063
124 | GCGTTCCTTA | 0.971 ± 0.024
125 | GCGTTGCCAG | 0.9816 ± 0.0081

Row | Sequence | switch fluorescence ratio
126 | GCGTTTCCTC | 1.08 ± 0.033
127 | GCGTTTCGGA | 1 ± 0.02
128 | GCGTTTGCAT | 1.03 ± 0.034
129 | GCGTTTTTGG | 0.998 ± 0.029
130 | GCGTTTTTTT | 0.98972 ± 0.0007
131 | GCTAAAACCT | 2.25 ± 0.23
132 | GCTAAATTCC | 1.11 ± 0.027
133 | GCTAACAGAG | 0.984 ± 0.035
134 | GCTAACCCTT | 1.06 ± 0.0036
135 | GCTAACGGAG | 1.0112 ± 0.00048
136 | GCTAATTGGC | 1.04 ± 0.098
137 | GCTACCGTTT | 1.04 ± 0.041
138 | GCTACGACGG | 1.05 ± 0.012
139 | GCTACTGGCC | 1.02 ± 0.039
140 | GCTACTTTGG | 1.06 ± 0.048
141 | GCTAGATCGT | 0.969 ± 0.033
142 | GCTAGGAACT | 0.979 ± 0.019
143 | GCTAGGAGTA | 0.987 ± 0.0091
144 | GCTAGGCCTC | 1.01 ± 0.038
145 | GCTAGGCTGG | 0.97301 ± 0.0002
146 | GCTAGGGCTT | 1.01 ± 0.062
147 | GCTAGTAAGT | 0.9819 ± 0.0063
148 | GCTAGTGCTT | 0.956 ± 0.011
149 | GCTAGTGGC | 0.985 ± 0.079
150 | GCTAGTTTCG | 1.03 ± 0.019

Row | Sequence | switch fluorescence ratio
151 | GCTATATGTG | 0.98 ± 0.069
152 | GCTATATTGG | 0.9933 ± 0.0091
153 | GCTATGGTGC | 1.026 ± 0.0038
154 | GCTATTAGGA | 0.984 ± 0.033
155 | GCTATTATAC | 1.47 ± 0.0019
156 | GCTATTGGGA | 1.01 ± 0.022
157 | GCTATTTGTA | 1.01 ± 0.023
158 | GCTCAAGCCT | 1.06 ± 0.028
159 | GCTCAATCTA | 1.01 ± 0.006
160 | GCTCATTTCG | 1.02 ± 0.042
161 | GCTCCAATAA | 2.49 ± 0.047
162 | GCTCCAATTT | 1.07 ± 0.034
163 | GCTCCGGCGG | 1.24 ± 0.045
164 | GCTCCGTGGG | 1.93 ± 0.1
165 | GCTCCTGTTA | 1.11 ± 0.027
166 | GCTCGAGATT | 1.026 ± 0.0027
167 | GCTCGCACAG | 1.321 ± 0.0081
168 | GCTCGGGGTG | 0.986 ± 0.032
169 | GCTCGTACGT | 1.01 ± 0.031
170 | GCTCGTCGGC | 0.9987 ± 0.0018
171 | GCTCGTTAAA | 1.04 ± 0.1
172 | GCTCGTTTGG | 0.9745 ± 0.0041
173 | GCTCGTTTTG | 0.981 ± 0.043
174 | GCTCTAGTGG | 1.01 ± 0.022
175 | GCTCTATAAT | 1.03 ± 0.0044

Row | Sequence | switch fluorescence ratio
176 | GCTCTATGAC | 1.08 ± 0.044
177 | GCTCTCACTT | 1.02 ± 0.043
178 | GCTCTGAGCT | 1.05 ± 0.086
179 | GCTCTGGGGA | 1.07 ± 0.12
180 | GCTCTGGGGT | 1.02 ± 0.033
181 | GCTCTTAGCG | 1.03 ± 0.054
182 | GCTCTTGTCT | 0.985 ± 0.061
183 | GCTCTTGTTC | 0.9975 ± 0.0083
184 | GCTGAAAAGA | 0.97 ± 0.032
185 | GCTGAAAGGC | 1.09 ± 0.061
186 | GCTGAAAGGG | 0.9903 ± 0.0067
187 | GCTGAAGTTC | 0.993 ± 0.025
188 | GCTGACGGGA | 1.1 ± 0.015
189 | GCTGAGGCTG | 1 ± 0.032
190 | GCTGAGGGAA | 1.01 ± 0.028
191 | GCTGATAACG | 1.01 ± 0.035
192 | GCTGATTTAT | 0.982 ± 0.018
193 | GCTGCGAATT | 1.021 ± 0.01
194 | GCTGCGGCAG | 1.012 ± 0.0046
195 | GCTGCGGGCT | 1.18 ± 0.24
196 | GCTGCTGGTA | 1.02 ± 0.024
197 | GCTGCTGTTT | 1.01 ± 0.0037
198 | GCTGCTTGCG | 1 ± 0.014
199 | GCTGGAAAAT | 1 ± 0.013
200 | GCTGGACGTG | 0.9912 ± 0.0055
